Results reported in article PMC10653815.

Key:
[1] = biological target: MosV-RBPβ (C-terminal six-bladed β-propeller head domain of the Mossman virus receptor-binding protein, Glu202−Thr632) (Mossman virus); assay: SEC; Superdex 200 10/30 column, 10 mM Tris pH 8.0, 150 mM NaCl; compared with gel filtration standards; pre- and post-deglycosylation
[2] = biological target: MosV-RBPβ (C-terminal six-bladed β-propeller head domain of the Mossman virus receptor-binding protein, Glu202−Thr632) (Mossman virus); assay: SEC-SAXS; glycosylated protein, 45 µL at 5 mg/mL on Superdex 200 PC 3.2/30 in TBS, in-line SAXS; curves fitted with monomeric and dimeric crystal models
[3] = biological target: NarV-RBPβ (C-terminal six-bladed β-propeller head domain of the Nariva virus receptor-binding protein, Glu184−Pro657) (Nariva virus); assay: SEC; Superdex 200 10/30 column, 10 mM Tris pH 8.0, 150 mM NaCl; compared with gel filtration standards; pre- and post-deglycosylation
[4] = biological target: NarV-RBPβ (C-terminal six-bladed β-propeller head domain of the Nariva virus receptor-binding protein, Glu184−Pro657) (Nariva virus); assay: SEC-SAXS; glycosylated protein, 45 µL at 5 mg/mL on Superdex 200 PC 3.2/30 in TBS, in-line SAXS; curves fitted with monomeric and dimeric crystal models

Row | Substance | stoichiometry N [1] | stoichiometry N [2] | stoichiometry N [3] | stoichiometry N [4]
1 | MosV-RBPβ (C-terminal six-bladed β-propeller head domain of the Mossman virus receptor-binding protein, Glu202−Thr632) (domain or fragment) | 2 | 2 |  | 
2 | NarV-RBPβ (C-terminal six-bladed β-propeller head domain of the Nariva virus receptor-binding protein, Glu184−Pro657) (domain or fragment) |  |  | 2 | 2
